# According to publication PMC6081378:
# Target: rHA1_(1-326), recombinant hemagglutinin HA1 fragment (residues 1-326) of influenza A virus H1N1 strain A/California/04/2009 (influenza A virus subtype H1N1 strain A/California/04/2009)
# Assay: SEC
substance,measurement,value
"rHA1_(1-326), recombinant hemagglutinin HA1 fragment (residues 1-326) of influenza A virus H1N1 strain A/California/04/2009 (domain or fragment)",percent of the protein as dimers and trimers,70.5%
